In article PMC4601640, “Stability of the Human Hsp90-p50^Cdc37 Chaperone Complex against Nucleotides and Hsp90 Inhibitors, and the Influence of Phosphorylation by Casein Kinase 2” (Molecules, 2015):

T1: GST-p50^Cdc37 (human, UniProt Q16543 1-378)
T1 construct: p50 Cdc37, human, full length, residues 1-378, in pGEX6P-1; also called GST-tagged p50^Cdc37; source: E. coli BL21 (DE3), purified (glutathione sepharose, size exclusion); not shown: GST, N-terminal, kept
T1 sequence (looked up): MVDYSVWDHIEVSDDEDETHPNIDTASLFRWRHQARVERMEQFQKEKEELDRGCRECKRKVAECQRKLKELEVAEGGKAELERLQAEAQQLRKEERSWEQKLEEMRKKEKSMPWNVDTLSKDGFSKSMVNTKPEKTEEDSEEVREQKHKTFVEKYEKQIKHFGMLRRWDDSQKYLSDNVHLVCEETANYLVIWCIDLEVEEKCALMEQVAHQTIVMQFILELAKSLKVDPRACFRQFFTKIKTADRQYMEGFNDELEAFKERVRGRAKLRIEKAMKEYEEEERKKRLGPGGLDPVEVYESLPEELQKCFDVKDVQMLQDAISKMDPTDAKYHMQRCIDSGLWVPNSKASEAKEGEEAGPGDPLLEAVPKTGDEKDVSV

B1: human full-length p50^Cdc37 (residues 1-378) (natural protein, UniProt Q16543 1-378, looked up)
chain: MVDYSVWDHIEVSDDEDETHPNIDTASLFRWRHQARVERMEQFQKEKEELDRGCRECKRKVAECQRKLKELEVAEGGKAELERLQAEAQQLRKEERSWEQKLEEMRKKEKSMPWNVDTLSKDGFSKSMVNTKPEKTEEDSEEVREQKHKTFVEKYEKQIKHFGMLRRWDDSQKYLSDNVHLVCEETANYLVIWCIDLEVEEKCALMEQVAHQTIVMQFILELAKSLKVDPRACFRQFFTKIKTADRQYMEGFNDELEAFKERVRGRAKLRIEKAMKEYEEEERKKRLGPGGLDPVEVYESLPEELQKCFDVKDVQMLQDAISKMDPTDAKYHMQRCIDSGLWVPNSKASEAKEGEEAGPGDPLLEAVPKTGDEKDVSV
notes: p50 Cdc37, human, full length, residues 1-378; Eluted as a dimer in size-exclusion chromatography; source: tag cleaved with PreScission protease

Columns and labels:
Details in all cases: both partners purified
human full-length Hsp90β [1] = target: T2, human full-length Hsp90β (human, UniProt P08238 1-724); assay: ITC; p50^Cdc37 (200 µM) titrated into Hsp90 (20 µM); 50 mM HEPES pH 7.5, 10 mM MgCl2, 30 °C
T2 construct: Hsp90β, human, full length, subcloned from T47D cell line cDNA into pET28a; Eluted as a dimer in size-exclusion chromatography; No step that removes the His6 tag is described; the tag is detected in the ELISA; also called hHsp90β-FL; His6-Hsp90

[2] = target: T3, CK2-phosphorylated human full-length Hsp90β (human, UniProt P08238 1-724, phosphoserine at 255 (shown by Western blot); Ser226 named as a CK2 site, its phosphorylation could not be verified); assay: as above
T3 construct: Hsp90β, human, full length, phosphorylated by CK2α; only pSer255 was checked; also called (p)Hsp90; h(p)Hsp90β-FL; source: E. coli BL21 Star (DE3), purified, then phosphorylated in vitro with purified CK2α and ATP
T3 sequence (P08238 whole entry): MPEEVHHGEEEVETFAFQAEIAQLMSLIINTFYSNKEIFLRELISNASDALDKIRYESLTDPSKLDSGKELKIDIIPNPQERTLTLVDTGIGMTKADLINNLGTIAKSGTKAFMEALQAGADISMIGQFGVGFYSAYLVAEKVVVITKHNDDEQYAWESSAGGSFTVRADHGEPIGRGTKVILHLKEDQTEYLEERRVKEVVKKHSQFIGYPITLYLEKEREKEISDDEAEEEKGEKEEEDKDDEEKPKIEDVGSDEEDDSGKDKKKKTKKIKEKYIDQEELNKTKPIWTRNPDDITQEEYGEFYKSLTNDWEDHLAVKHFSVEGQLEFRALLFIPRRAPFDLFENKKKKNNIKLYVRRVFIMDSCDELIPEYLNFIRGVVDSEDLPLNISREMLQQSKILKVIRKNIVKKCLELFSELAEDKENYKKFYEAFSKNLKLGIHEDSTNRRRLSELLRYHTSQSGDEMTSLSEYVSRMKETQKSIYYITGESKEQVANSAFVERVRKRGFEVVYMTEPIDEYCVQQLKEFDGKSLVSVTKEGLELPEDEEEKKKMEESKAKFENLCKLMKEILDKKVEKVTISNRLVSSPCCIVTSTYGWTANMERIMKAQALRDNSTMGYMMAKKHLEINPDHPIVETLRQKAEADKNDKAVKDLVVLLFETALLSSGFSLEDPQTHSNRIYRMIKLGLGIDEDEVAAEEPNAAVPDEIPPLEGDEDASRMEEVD

human full-length Hsp90β [3] = target: T2, human full-length Hsp90β; assay: SEC; analytical Superdex200 10/300 GL, room temperature, 0.3 mL/min; 85 µM protein in 50 mM HEPES pH 7.5, 50 mM KCl, 5 mM MgCl2, 1 mM DTT; fractions on SDS-PAGE
GST-p50^Cdc37 = target: T1, GST-p50^Cdc37; assay: ELISA; GST-p50^Cdc37 (4 µM) immobilised on glutathione-coated plates; His6-Hsp90 (4 µM) pre-incubated with nucleotides and/or inhibitors in 5% DMSO, detected with anti-His6; 50 mM HEPES pH 7.5, 150 mM NaCl, 10 mM MgCl2, 0.05% Tween-20, 0.1% BSA; room temperature
[4] = target: B1; assay: ITC; p50^Cdc37 (200 µM) titrated into Hsp90 (20 µM); 50 mM HEPES pH 7.5, 10 mM MgCl2, 30 °C

| Binder | Kd (human full-length Hsp90β [1]) | Kd [2] | Kd [4] | further results |
| --- | --- | --- | --- | --- |
| B1 | 1.2 µM | 1.7 µM |  | stoichiometry N (human full-length Hsp90β [3]): 1 |
| CK2-phosphorylated human full-length p50^Cdc37 (natural protein, UniProt Q16543 1-378, looked up, phosphoserine at 13 (shown by Western blot), p50 Cdc37, human, full length, residues 1-378, phosphorylated by CK2α; also called (p)p50^Cdc37; source: E. coli Tuner (DE3), purified, then phosphorylated in vitro with purified CK2α and ATP) MVDYSVWDHIEVSDDEDETHPNIDTASLFRWRHQARVERMEQFQKEKEELDRGCRECKRKVAECQRKLKELEVAEGGKAELERLQAEAQQLRKEERSWEQKLEEMRKKEKSMPWNVDTLSKDGFSKSMVNTKPEKTEEDSEEVREQKHKTFVEKYEKQIKHFGMLRRWDDSQKYLSDNVHLVCEETANYLVIWCIDLEVEEKCALMEQVAHQTIVMQFILELAKSLKVDPRACFRQFFTKIKTADRQYMEGFNDELEAFKERVRGRAKLRIEKAMKEYEEEERKKRLGPGGLDPVEVYESLPEELQKCFDVKDVQMLQDAISKMDPTDAKYHMQRCIDSGLWVPNSKASEAKEGEEAGPGDPLLEAVPKTGDEKDVSV | 5.1 µM | 8.6 µM |  |  |
| human Hsp90α (1-732 Δ226-283) (natural protein, Hsp90α, human, residues before the deleted section 226-283 of the construct 1-732; four glycine residues that replace the deleted section 226-283; Hsp90α, human, residues after the deleted section 226-283 of the construct 1-732; Gene synthesised by GeneArt; pET28a; also called ΔHsp90α) not shown |  |  |  | binding result (GST-p50^Cdc37): binds |
| human Hsp90β (1-724 Δ220-275) (natural protein, Hsp90β, human, residues before the deleted charged linker 220-275 of the construct 1-724; four glycine residues that replace the deleted section 220-275; Hsp90β, human, residues after the deleted charged linker 220-275 of the construct 1-724; Gene synthesised by GeneArt, codon optimised for E. coli; pET28a; also called ΔHsp90; ΔHsp90β) not shown |  |  | 1100 nM |  |
| human N-terminal Hsp90β (1-219) (domain or fragment, Hsp90β, human, N-terminal domain, residues 1-219; Gene synthesised by GeneArt; pET28a; also called N-Hsp90; Hsp90β-N) not shown |  |  | 4400 nM |  |
